How the values were obtained:
Assay type in all cases: in vivo, rat
[1] = system: adult rats following noise damage; assay: Noise-induced cochlear synaptopathy, IHC synaptic puncta counts (Example G); settings: each frequency region throughout the cochlea; BDNF in P407 after noise; Day 28; FIG. 13C
Protocol: (§1) Animals: Male Sprague-Dawley rats (5-6 months of age) were used for efficacy studies and females (2-3 months) were used for pharmacokinetic studies.
Formulations: Human recombinant BDNF was suspended in the thermoreversible polymer Poloxamer 407 (16%) to reach a range of BDNF concentrations.
(§2) Intratympanic (IT) injection: Formulations were administered under anesthesia as a single IT injection (20 μl) through the tympanic membrane into the middle ear, targeting the round window membrane (RWM).
(§3) Noise-induced cochlear synaptopathy: Rats (n=44 per treatment group) received a single acoustic trauma (105 dB SPL, 8-16 kHz, 1 h) under anesthesia. 24 hours later (Day 1) animals received a single bilateral IT injection of the treatment regimens. Auditory function (ABR and ABR wave 1 amplitude) was monitored at day 1 and then every 7 days for 28 days. At termination (Day 28), cochleae were collected and assessed for evidence of cochlear synaptopathy (IHC synaptic puncta counts).
(§4) Immunohistochemistry: Dissected cochleae were immunostained with antibodies against presynaptic (CtBP2) and postsynaptic (GluR2) proteins and MyosinVIIa to label hair cells. Cochleae were then frequency mapped and high-magnification images were obtained with a Zeiss LSM-880 confocal microscope and imaged at an interval of 0.35 μm.
Intratympanic BDNF repairs cochlear synaptopathy in adult rats. […]

[2] = system: rats after acoustic trauma; assay: Noise-induced cochlear synaptopathy, IHC synaptic puncta counts at various BDNF concentrations (Example K); settings: at all three BDNF concentrations (0.005%, 0.05%, 0.5% BDNF in P407); Day 28; FIG. 19
Protocol: as §1
(§5) Formulations: Human recombinant BDNF was suspended in the thermoreversible polymer Poloxamer 407 (16%) to reach a range of BDNF concentrations (0.005%, 0.05%, and 0.5% by weight).
as §2
as §3, with “Rats” for “Rats (n=44 per treatment group)”, “days, as illustrated in FIG. 16.” for “days.”
as §4

[3] = system: adult male rats bilaterally exposed to noise; assay: Noise-induced cochlear synaptopathy, ABR and wave I amplitude at various BDNF concentrations (Example K); settings: at all three BDNF concentrations (0.005%, 0.05%, 0.5% BDNF in P407), vs P407 vehicle alone
Protocol: as §1, §5, §2
as §3, with “Rats” for “Rats (n=44 per treatment group)”, “days, as illustrated in FIG. 16.” for “days.”
Intratympanic BDNF improves Auditory Brainstem Response (ABR) thresholds and wave I amplitudes in adult rats. The Auditory Brainstem Response (ABR) is an objective test that measures hearing sensitivity and can identify abnormalities in the peripheral auditory system and the auditory pathway up through the brainstem. […]

noise exposed adult rats = assay: Noise-induced hearing loss/synaptopathy, ABR wave I amplitude (Example A1); settings: sustained release formulation, 0.005% BDNF in Poloxamer 407, single unilateral intratympanic administration 24 hrs after noise; compared to vehicle treatment; FIG. 3A
Protocol: Male rats (Charles River) approximately 10-11 months of age served as subjects (N=6 per group). Prior to any procedures, animals were anesthetized using a combination of xylazine (10 mg/kg) and ketamine (90 mg/kg) for up to one hour via the intraperitoneal route. If needed, an intraoperative booster was administered intraperitoneally representing one-tenth of the original dose.
Noise exposure—Anesthetized animals (4 at a time) were placed in an enclosure and exposed to noise. The characteristics of the acoustic trauma were as follows: a single period of 1 h, sound pressure level of 105 dB SPL with a narrow band pass of 8-16 kHz. […]
Auditory Brainstem Response (ABR) assessment (wave 1)—During the procedure, additional anesthetic (xylazine and ketamine) was administered if needed to maintain the depth of anesthesia sufficient to insure immobilization and relaxation. ABRs were recorded in an electrically and acoustically shielded chamber, one ear at a time. […] Acoustic calibration was performed with TDT software (SigCal) and thresholds were expressed as dB SPL in conditions identical to that of threshold recordings in animals. […] Wave 1 was quantified by averaging the wave 1 amplitude from intensities ranging between 60-80 dB SPL.
Animals were exposed to noise on Day 0. […] ABR threshold and ABR wave I amplitude were measured weekly in live animals for up to 4 weeks. […]

B1: brain-derived neurotrophic factor (protein, UniProt P23560 129-247, looked up)
Neurotrophic factor BDNF: HSDPARRGELSVCDSISEWVTAADKKTAVDMSGGTVTVLEKVPVSKGQLKQYFYETKCNPMGYTKEGCRGIDKRHWNSQCRTTQSYVRALTMDSKKRIGWRFIRIDTSCVCTLTIKRGR
modifications: Neurotrophic factor BDNF in 16% poloxamer 407 gel
notes: Human recombinant BDNF
[1]
  synaptic puncta (co-expression of CtBp2 and GluR2) per inner hair cell: increased
[2]
  synaptic puncta (co-expression of CtBp2 and GluR2) per inner hair cell: increased
[3]; intratympanic injection 24 hours after noise exposure, FIG. 17
  ABR threshold shift: more rapid recovery of initial threshold shifts and overall reduced levels of hearing loss
[3]; FIG. 18
  wave I amplitudes: significant improvements
Noise exposed adult rats
  hearing function (wave I amplitude): improved

From patent US20230122991A1, “GROWTH FACTOR FORMULATION FOR CONDITION ASSOCIATED WITH OTIC EVENT” (OTONOMY, INC., priority 2020, published 2023)
